# Source: patent US20110014669A1, “Production of 1,4 Butanediol in a Microorganism” (Microbia, Inc., priority 2009, published 2011)
# Positions count from the first letter of the chain named. Read-outs that look alike come from different tables or passages of the source.
# B1: AdhBZm: Enzyme candidate for BDO biosynthetic pathway step A6, SEQ ID NO. 50 (protein, listed as Zymomonas mobilis)
# chain: MASSTFYIPFVNEMGEGSLEKAIKDLNGSGFKNALIVSDAFMNKSGVVKQVADLLKAQGINSAVYDGVMPNPTVTAVLEGLKILKDNNSDFVISLGGGSPHDCAKAIALVATNGGEVKDYEGIDKSKKPALPLMSINTTAGTASEMTRFCIITDEVRHVKMAIVDRHVTPMVSVNDPLLMVGMPKGLTAATGMDALTHAFEAYSSTAATPITDACALKAASMIAKNLKTACDNGKDMPAREAMAYAQFLAGMAFNNASLGYVHAMAHQLGGYYNLPHGVCNAVLLPHVLAYNASVVAGRLKDVGVAMGLDIANLGDKEGAEATIQAVRDLAASIGIPANLTELGAKKEDVPLLADHALKDACALTNPRQGDQKEVEELFLSAF
# B2: NosEN: Enzyme candidate for BDO biosynthetic pathway step A3, SEQ ID NO. 16 (protein, listed as Nostoc sp.)
# chain: MPLAAVMTAPNQPVEVQQLPDPILEKGGIILETLYSEVCGTDVHLLHGRLEGVPYPIIPGHFSVGRVVETGGAVSDVNGKLIQPGAIATFLDVHETCYNCWYCLVAKASTRCPQRKVYGVTYSAKDGLLGGWSELIYLKPGVKVLTLPEEVSPKQFIAGGCALPTALHAIDRAQIQIGDVVVVQGCGPVGLSAAILALLSGAGKVIVIDKFESRLVVAKSFGVDETLAIKADDPRQHIERVLELTNGHGADVTIEATGIPIAVKEGLNMTRNGGRYVIVGHYTNTGEILINPHLEINLKHIDIRGTWGIDFSHFYRMIELLKRHSDSSKNIAWSSIISRSYTLKEINQALADVEQGSVLKAVIQPNLS
# B3: NosENp: nosE alcohol dehydrogenase from Nostoc punctiforme, step A3 enzyme candidate, SEQ ID NO. 18 (protein)
# chain: B2 chain with D21E, L31I, Q114K, K230R, A351V
# modifications: Nostoc punctiforme
# B4: NosEAv: Enzyme candidate for BDO biosynthetic pathway step A3, SEQ ID NO. 20 (protein, listed as Anabaena variabilis)
# chain: MPKAAVMSAPNQPVVVQQLPDPILEKGGIIVETLYSEVCGTDVHLLHGRLEGVPYPIIPGHFSVGRVVETGGAVSDVNSNLIQPGAIATFLDVHETCYNCWYCLVAKASTRCPQRKVYGVTYSAKEGLLGGWSELIYLKPGVKVLTLPAEVSPKQFIAGGCALPTALHAIDRAQIQIGDVVVVQGCGPVGLSVAILALLSGAGKVIVIDKFESRLAVAKSFGVDETLAIKADDPRQHIERVLELTNGHGADVIIEATGIPIAVKEGLNMTRNGGRYVIVGHYTNTGEILINPHLEINLKHIDIRGTWGIDFSHFYRMIELLKRHSDPKKNIAWENLISRSYTLNEINQALTDVERGSVLKAVIQPNLS
# B5: DhaTCf: Enzyme candidate for BDO biosynthetic pathway step A6, SEQ ID NO. 48 (protein, listed as Citrobacter freundii)
# chain: MSYRMFDYLVPNVNFFGPNAISVVGERCKLLGGKKALLVTDKGLRAIKDGAVDKTLTHLREAGIDVVVFDGVEPNPKDTNVRDGLEVFRKEHCDIIVTVGGGSPHDCGKGIGIAATHEGDLYSYAGIETLTNPLPPIVAVNTTAGTASEVTRHCVLTNTKTKVKFVIVSWRNLPSVSINDPLLMLGKPAPLTAATGMDALTHAVEAYISKDANPVTDAAAIQAIRLIARNLRQAVALGSNLKARENMAYASLLAGMAFNNANLGYVHAMAHQLGGLYDMPHGVANAVLLPHVARYNLIANPEKFADIAEFMGENTDGLSTMDAAELAIHAIARLSADIGIPQHLRDLGVKEADFPYMAEMALKDGNAFSNPRKGNEKEIAEIFRQAF
# Key:
# [1] = test system: Corynebacterium glutamicum (ATCC 13032); conditions: FIG. 12A
# Experimental: (§4) For each experiment, 50 mL of media was filter-sterilized before adding to pre-sterilized 250 mL triple baffled shake flasks. […] Each strain was grown in four different shake flasks.
# (§5) Inocula were freshly grown on agar plates, cotton swabbed into a sterile Falcon® tube containing the same medium used in the shake flask and mixed well. The cell suspension was then inoculated into the prepared shake flasks to initiate the growth evaluation. The growth for each strain was monitored by measuring the OD (at 660 nm) and pH over the time course. If the medium contained glucose, such as Difco® Yeast Malt medium (YM), glucose concentration was monitored by using a YSI 2700 Select Biochemistry Analyzer.
# (§6) Since different media and growth conditions were used, results were expressed as % of growth where the control, no BDO flask, represented 100% growth.
# [2] = test system: Zymomonas mobilis (ATCC 31821); conditions: 90 g/L and 135 g/L of BDO
# Experimental: as §4, §5, §6
# [3] = test system: Pseudomonas putida (ATCC 700801)
# Experimental: as §4, §5, §6
# [4] = test system: S. cerevisiae strains (CEN.PK and Fermentis); conditions: 135 g/L of BDO
# Experimental: as §4, §5, §6
# [5] = test system: Yarrowia lipolytica (ATCC 20228)
# [6] = test system: Zygosaccharomyces bailii (ATCC 60594)
# [7] = test system: 4-hydroxybutanal; experiment: Enzyme assay, oxidoreductase (step A6), cell lysates; format: biochemical; set-up: key: +: measureable activity detected in the assay; −: no measurable activity detected in the assay; conditions: BDO biosynthetic pathway step A6
# Experimental: (§1) Enzyme expression and crude lysate preparation. The enzymatic activity of each candidate enzyme is evaluated, first in E. coli and subsequently in C. glutamicum. It will be apparent to one of skill in the art that the expression and lysate preparations may need to be modified depending on the host cell and recombinant gene of interest.
# E. coli: E. coli strains transformed with expression clones, for example, pUC18 or MB4124 based clones having a medium strong constitutive promoter regulating the recombinant gene of interest, are grown aerobically in LB medium (Difco) containing the appropriate antibiotic(s). At an OD600 of 0.5, IPTG is added to a final concentration of 0.25 mM. The cultures are grown to a final OD600 of 1.5 at which time the cells are collected and harvested by centrifugation. Cell pellets are resuspended in BugBuster (Novagen) reagent containing benzonase and lysozyme. Alternatively, E. coli strains transformed with expression clones, are grown overnight aerobically at 37° C. in BHI containing the appropriate antibiotic(s). 300 μL of fresh overnight culture is used to inoculate 2.7 mL BHI containing 0.25 mM IPTG and the appropriate antibiotic. The cultures are grown aerobically for 4-5 hours at 37° C. at which time the cells are collected and harvested by centrifugation. Cell pellets are frozen at −80° C. for at least 15 minutes, then thawed and resuspended in BugBuster (Novagen) reagent. Lysis and lysate collection are performed according to the manufacturer's instructions and, for example, may involve use of a sonicator and/or French press. Cleared lysates are stored on ice until enzyme assays are performed. […]
# (§2) Protein Assays. Protein concentrations in lysates are determined according to the methods of Bradford et al. (Anal. Biochem. 72:248-254 [1976]) or by the method of Smith et al. (Anal. Biochem. 150(1):76-85 [1985]) and lysates are assayed according to the methods below. […]
# [8] = test system: L-glutamate 5-semialdehyde (GSA); experiment: Enzyme assay, oxidoreductase (step A3), cell lysates; format: biochemical; set-up: key: +: measureable activity detected in the assay; −: no measurable activity detected in the assay; conditions: BDO biosynthetic pathway step A3
# Experimental: as §1
# E. coli: E. coli strains transformed with expression clones, for example, pUC18 or MB4124 based clones having a medium strong constitutive promoter regulating the recombinant gene of interest, are grown aerobically in LB medium (Difco) containing the appropriate antibiotic(s). At an OD600 of 0.5, IPTG is added to a final concentration of 0.25 mM. The cultures are grown to a final OD600 of 1.5 at which time the cells are collected and harvested by centrifugation. Cell pellets are resuspended in BugBuster (Novagen) reagent containing benzonase and lysozyme. Alternatively, E. coli strains transformed with expression clones, are grown overnight aerobically at 37° C. in BHI containing the appropriate antibiotic(s). 300 μL of fresh overnight culture is used to inoculate 2.7 mL BHI containing 0.25 mM IPTG and the appropriate antibiotic. The cultures are grown aerobically for 4-5 hours at 37° C. at which time the cells are collected and harvested by centrifugation. Cell pellets are frozen at −80° C. for at least 15 minutes, then thawed and resuspended in BugBuster (Novagen) reagent. Lysis and lysate collection are performed according to the manufacturer's instructions and, for example, may involve use of a sonicator and/or French press. Cleared lysates are stored on ice until enzyme assays are performed.
# C. glutamicum: C. glutamicum strains transformed with MB4124 expression clones containing the recombinant gene of interest are grown aerobically in BHI broth supplemented with the proper antibiotic(s). At an OD600 of 0.5, IPTG is added to a final concentration of 0.25 mM. The cultures are grown to a final OD600 of 1.5 at which time the cells are collected and harvested by centrifugation. The pellet is washed once in one volume of water and resuspended in lysis buffer (1.0 ml 1.0 M HEPES buffer, pH 7.5, 0.5 ml 1M KOH, 10 μl 0.5M EDTA, protease inhibitor cocktail, water to 5 ml; the final pH will vary depending on the individual enzyme being tested) and one volume of 0.1 mm acid washed glass beads. The mixture is repeatedly alternately vortexed and held on ice for 15 seconds, eight times. After centrifugation for 5 min at 4,000 rpm, the supernatant lysate is removed and respun for 20 min at 10,000 rpm. Alternatively, C. glutamicum strains transformed with MB4124 expression clones containing the recombinant gene of interest are grown aerobically overnight in BHI broth supplemented with the proper antibiotic(s). Five mL of fresh overnight culture is used to inoculate 200 mL BHI containing 0.25 mM IPTG and the appropriate antibiotic. The cultures are grown aerobically at 30° C. for 5-7 hours at which time the cells are collected and harvested by centrifugation at 4° C. The pellet is resuspended in 15 mL ice cold 39 mM KH2PO4, 61 mM K2HPO4, 0.5 M KCl and lysed using a BioSpec BeadBeater and following the manufacturer's instructions. […]
# as §2
# [9] = test system: L-glutamate 5-semialdehyde (GSA); experiment: In vitro substrate conversion assay, step A3; format: biochemical; set-up: key: +: measureable activity detected in the assay; −: no measurable activity detected in the assay; conditions: BDO biosynthetic pathway step A3
# Experimental: In Vitro Substrate Conversion. Most of the enzyme assays described above are based on recording changes in absorbance at a given wavelength. In addition to such spectrophotometric readouts, these assays can also be analyzed by more direct methods using an endpoint assay where the reaction is terminated after a given period of time and the mixture is analyzed via HPLC or LC-MS methods.
# (§3) The aldehyde dehydrogenase linked reaction was used for step A5.
# [10] = test system: L-glutamate 5-semialdehyde (GSA); experiment: Bioconversion (feeding) assay, step A3; format: cell-based; set-up: key: +: measureable activity detected in the assay; −: no measurable activity detected in the assay; conditions: BDO biosynthetic pathway step A3
# Experimental: Bioconversion assays. The activity of a candidate enzyme towards a given substrate can also be evaluated in vivo using a simple feeding assay. A strain expressing the candidate enzyme is grown in the presence of the substrate for which activity is desired. Samples of the culture are removed periodically and the cells are removed via centrifugation. The culture supernatant is then analyzed (e.g., by LC-MS) to determine how much of the substrate has been removed and how much of a given product is present.
# as §3
# [11] = 90 g/L and 135 g/L of BDO, loss of cell viability
Molecule,Enzyme Assay [7],Enzyme Assay [8],In Vitro Substrate Conversion Assay [9],Bioconversion Assay [10],further results
"OCCCCO [BDO, 1,4-butanediol]",,,,,"growth in the presence of BDO ([1]; 90 g/L and 135 g/L of BDO): grew better than the rest of strains; growth in the presence of BDO ([1]; 135 g/L BDO, compared with Z. mobilis): grew better than Z. mobilis; growth in the presence of BDO [2]: grew better than the rest of strains; cell density in the presence of BDO ([3]; 20 g/L of BDO, relative to no-BDO control): approximately twice of the control; growth in the presence of BDO ([3]; 90 g/L and 135 g/L BDO, FIG. 12B): grew poorly; tolerance to BDO [4]: greater tolerance than E. coli; growth in the presence of BDO ([5]; 20 g/L of BDO): able to grow; growth in the presence of BDO [5, 11]: completely inhibited growth; growth in the presence of BDO ([6]; 20 g/L of BDO): able to grow; growth in the presence of BDO [6, 11]: completely inhibited growth"
B1,+,,,,
B2,,−,+,+,
B3,,+,+,+,
B4,,−,+,+,
B5,−,,,,
